Results: US20210032294A1, “MODIFIED PlySs2 LYSINS AND USES THEREOF” (CONTRAFECT CORPORATION, priority 2018, published 2021)
Entries after “also recorded” stand apart in the source; their conditions may differ.

Tests used:
[1] = tested on: S. aureus isolate CFS-860; experiment: Mouse neutropenic thigh infection (MNTI) model; type: in vivo, Staphylococcus aureus
Procedure: The efficacy of four modified lysin polypeptides was compared to wild-type PlySs2 in a dose response (0-60 mg/kg) assay using a mouse neutropenic thigh infection (MNTI) model.
Bacterial inoculum was generated by allowing bacterial cells to grow to exponential phase in MHB until they reached an optical density (OD) of about 0.5 at 600 nm. The bacterial cells were thoroughly washed, resuspended in 0.9% sodium chloride USP, and diluted to an equivalent of 3.9×10^8 colony forming units (CFU)/mL. Cells were further diluted as described below in 0.9% sodium chloride USP and maintained on wet ice.
Neutropenia was induced in female BALB/cByJ mice (5-7 weeks, Jackson Laboratories) by intraperitoneal (ip) administration of 150 mg/kg and 100 mg/kg of cyclophosphamide 4 and 1 days prior to inoculation of bacteria, respectively. Bacterial inoculum (S. aureus isolate CFS-860, 100 μl of 10^7 CFU/ml solution) was injected intramuscularly (IM) into both posterior thighs of each mouse. […] At 2 hours post-inoculation (Early Control) and 24 hours post-treatment initiation, animals were euthanized (CO2 asphyxiation), and the thighs were aseptically removed. Each thigh was weighed, placed into 4 ml sterile saline and homogenized in 7 ml lysing tubes using a Precellys24 high-throughput tissue homogenizer (Bertin Corp, Rockville, Md.). Dilutions of homogenate were plated on tryptic soy blood agar plates (Becton Dickinson) and incubated at 37° C. overnight in a CO2 incubator. Bacterial burden was enumerated and expressed as log 10 CFU/g of thigh weight and compared to control animals harvested at 2 hours post infection (Early Control) and animals treated with vehicle (Late Control).
The data representing mouse thigh bacterial burden are depicted in FIG. 2. The upper dot on the y-axis is vehicle alone, and the lower dot on the y-axis is the Early Control. pp1149 is in fact also a wild-type lysin over-expressed and purified in the laboratory along with the other modified lysin polypeptides and used as an additional positive control.

[2] = Single 2-hour intravenous infusion toxicity study in rats; type: in vivo, Sprague Dawley rats
Text: The objectives of this study were to evaluate the potential toxicity and toxicokinetic profile of pp296 when administered as a single 2-hour intravenous infusion to Sprague Dawley rats, as well as to evaluate the recovery, persistence, or progression of any effects following a minimum of a 3-day recovery period.
The following Tables 9 and 10 present the study group arrangement. There were 5 male and 5 female rats per group in Phase A.
For the main (Phase A) and toxicokinetic (Phase B) phases, animals received a single 2-hour intravenous infusion. Phase A animals received a single 2-hour intravenous infusion at escalating doses until the maximum tolerated dose (MTD) was determined up to a high dose of 100 mg/kg. A minimum of 3 days of observation was allowed between each pp296 dose. Animals assigned to Groups 2 through 5 were necropsied approximately 72 hours following the end of dose administration. ^aThe vehicle was 20 mM L-histidine, 5% D-sorbitol (w/v), pH 7.0 (±0.1).
The following parameters and endpoints were evaluated in this study: clinical signs, body weight, body weight gain, food consumption, clinical pathology parameters (hematology, coagulation, serum chemistry, and urinalysis), gross necropsy findings, and histopathologic examinations.

[3] = tested on: MRSA strain MW2; experiment: Serial passage resistance assay; type: cell-based, Staphylococcus aureus
Procedure: An analysis of bacterial resistance was performed using MRSA strain MW2 over 18 days of serial passage in the presence of a pp296 dilution series and an antibiotic dilution series in presence and absence of sub-MIC amounts of pp296. Briefly, the broth microdilution MIC format was used in which 2-fold dilutions ranges of pp296 alone or antibiotic in the presence and absence of a fixed sub-MIC amount of pp296 was cultured with bacteria (5×10^5 CFU/ml starting concentration) in MHB for 20 hours at 37° C. The well with the highest concentration of the modified lysin polypeptide in which bacterial growth was seen was then used as the inoculum for the next day's passage, and the process was repeated over a […]. The MIC at each daily time-point was recorded, and resistance was measured as a step-wise increase in MIC. […] The results are depicted graphically in FIGS. 3A-3C.

[4] = tested on: 1-day old biofilms formed by MSSA isolates; experiment: Minimum Biofilm Eradication Concentration (MBEC), MSSA biofilms; type: cell-based, Staphylococcus aureus; settings: 24 hours treatment
Procedure: In some embodiments, the present modified lysin polypeptides are capable of reducing a biofilm. […] Biofilms are then washed and treated with e.g., a 2-fold dilution series of the lysin in TSBg at e.g., 37° C. for 24 hours. After treatment, wells are washed, air-dried at e.g., 37° C. and stained with e.g., 0.05% crystal violet for 10 minutes. After staining, the biofilms are destained in e.g., 33% acetic acid and the OD600 of e.g., extracted crystal violet is determined. The MBEC of each sample is the minimum lysin concentration required to remove >95% of the biofilm biomass assessed by crystal violet quantitation.
The anti-biofilm activity of pp296 was determined against 1-day old biofilms formed by 17 MSSA and 20 MRSA isolates in a 96-well broth microdilution format. The Minimum Biofilm Eradication Concentration (MBEC) values for pp296, compared to wild-type PlySs2 (CF-301), were determined by the following standard methodology. Bacteria were suspended in PBS (0.5 McFarland Units), diluted 1:100 in TSBg (66% tryptic soy broth, 0.2% glucose), added as 0.15 mL aliquots to 96-well polystyrene microplates, and incubated for 24 hours at 37° C. Biofilms were then washed and treated with a 2-fold dilution series of CF-301 or pp296 in TSBg at 37° C. for 24 hours. All samples were examined in triplicate. After treatment, wells were washed, air-dried at 37° C., and stained with 0.05% crystal violet for 10 min The loss of biofilm biomass was assessed visually, and crystal violet was quantitated by solubilization in 33% (vol/vol) acetic acid. The optical density of 600 nm (OD600) was determined using a SpectraMax M3 Multimode microplate reader. The MBEC of each sample was the minimum lysin concentration required to remove >95% of the biofilm biomass assessed by crystal violet quantitation.

B1: pp296: Modified PlySs2 lysin, SEQ ID NO: 6: L92W, V104S, V128T, Y137S, Y164K, N184D, S198Q (protein)
chain: MTTVNEALNNVRAQVGSGVSVGNGECYALASWYERMISPDATVGLGAGVGWVSGAIGDTISAKNIGSSYNWQANGWTVSTSGPFKAGQIVTWGATPGNPYGHVSIVEAVDGDRLTILEQNYGGKRYPTRNYYSAASSRQQVVHYITPPGTVAQSAPNLAGSRSKRETGTMTVTVDALNVRRAPDTSGEIVAVYKRGEQFDYDTAIIDVNGYAWVSYIGGSGKRNYVATGATKDGKRFGNAWGTFK
Performance in MNTI at lower doses ([1]; 0.5 mg/kg): performed comparably to wild type | Bactericidal efficacy (thigh bacterial burden) versus wild type ([1]; neutropenic BALB/cByJ mice, intravenous, dose response, 24 hours): activity comparable to wild-type PlySs2 lysin | Bactericidal efficacy at the lowest dose used ([1]; neutropenic mice, intravenous, 5 mg/kg): comparable to that of wild-type PlySs2 lysin | No-observed-adverse-effect level (NOAEL) ([2]; single 2-hour intravenous infusion): > 100 mg/kg | Tolerability / adverse findings ([2]; single intravenous infusion, 5, 25, 50, and 100 mg/kg): well tolerated with no adverse findings at all doses; also recorded: well-tolerated with no adverse findings at all doses | Increase in MIC of DAP or VAN / appearance of antibiotic resistance ([3]; antibiotic plus fixed sub-MIC amount of lysin): no or very little increase; also recorded: suppressed the appearance of daptomycin and vancomycin resistance | Resistance to the lysin (increase in MIC on serial passage) ([3]; lysin alone, three replicate lineages, 21-26 day period): no or very little increase; also recorded: no resistance to pp296 was observed | Amount needed to suppress DAP resistance ([3]; with daptomycin, 1/16th the MIC for pp296 alone): 0.125 µg/mL | Amount needed to suppress development of VAN resistance ([3]; with vancomycin, 1/8th the MIC for pp296 alone): 0.25 µg/mL | MBEC50 [4]: 0.063 µg/mL | MBEC90 [4]: 0.25 µg/mL | MBEC Range [4]: 0.01 to 1 µg/mL
